Results as given in paper PMC4846087.

Key:
GST (27 kDa GST protein) = assay: SEC; Superdex 200 10/300 GL pre-equilibrated with L buffer (40 mM Tris-base, 200 mM NaCl, 1 mM EDTA, 5% glycerol, 5 mM DTT, pH 8.0); eluate of the GST affinity column loaded; molecular weights of the peaks estimated from the column manufacturer's instructions; peaks analysed by SDS-PAGE
[1] = target: GST-tagged VirB9-1 (not stated | Anaplasma marginale); assay: as above

| Substance | stoichiometry N (GST (27 kDa GST protein)) | stoichiometry N [1] |
| --- | --- | --- |
| GST (27 kDa GST protein) (natural protein) | 2 | – |
| GST-tagged VirB9-1 | – | 2 |
